We go through 3 molecules from US20150353638A1 (INSTITUTE OF BASIC MEDICAL SCIENCES CHINESE ACADEMY OF …, published 2015).

This assay has as its target T1, antigen DR5 (human death receptor 5), immobilised on the CM5 chip (human, UniProt O14763 56-182, limits assumed).
T1 construct: The title says the antibodies are against the extracellular domain, but the construct used is not described; also called TRAIL receptor 2; TRAIL-R2
The assay is described as follows: SPR (Biacore X100), DR5 immobilised on CM5 chip, antibody injected as analyte. (In general: Surface plasmon resonance follows binding to a sensor surface in real time, without labels.)

B1: humanized anti-human DR5 monoclonal antibody AD15 (antibody, human IgG1, kappa)
heavy: not shown
light: DVVMTQSPLSLPVTPGEPASISCRSSQSLVHSNGNTYLHWYLQKPGQSPQLLIYKVSNRFSGVPDRFSGSGSGTDFTLKISRVEAEDVGVYFCFQSTHVPHTFGQGTKLEIKRTVAAPSVFIFPPSDEQLKSGTASVVCLLNNFYPREAKVQWKVDNALQSGNSQESVTEQDSKDSTYSLSSTLTLSKADYEKHKVYACEVTHQGLSSPVTKSFNRGEC
notes: Humanized from murine AD5-10 by CDR grafting; human IgG1 heavy chain constant region and kappa light chain
As for B1, binding was put at a Kd of 2.95 nM; the koff (as a rule, a measure of how fast the partners let go of each other) turned out to be 0.0097 s⁻¹; the kon (commonly the second-order rate constant of association) amounted to 3.28e+06 M⁻¹ s⁻¹.

B2: humanized anti-human DR5 monoclonal antibody AD14 (antibody, human IgG1, kappa)
heavy: not shown
light: DVVMTQSPLSLPVTPGEPASISCRSSQSLVHSNGNTYLHWYLQKPGQSPQLLIYKVSNRFSGVPDRFSGSGSGTDFTLKISRVEAEDVGVYFCFQSTHVPHTFGQGTKLEIKRTVAAPSVFIFPPSDEQLKSGTASVVCLLNNFYPREAKVQWKVDNALQSGNSQESVTEQDSKDSTYSLSSTLTLSKADYEKHKVYACEVTHQGLSSPVTKSFNRGEC
notes: as for B1
In the case of B2, the Kd (in general, the free concentration of one partner at which half of the binding sites on the other are occupied at equilibrium, for simple one-to-one binding) is 1.65 nM; the koff was determined as 0.014 s⁻¹; the kon is 8.44e+06 M⁻¹ s⁻¹.

B3: humanized anti-human DR5 monoclonal antibody AD10 (antibody, human IgG1, kappa, V domains shown)
VH: EIQLVQSGPELKKPGASVKVSCKASGYTFTDFSMNWVRQAPGQGLKWMGWINTETGEPTYADDFKGRFALSMDTSVSTAYLQISSLKAEDTAVYFCVRIDYWGQGTTVTVSS
VL: DIVMTQSPLSLPVTPGEPASISCRSSQSLVHSNGNTYLHWYLQKPGQSPQLLIYKVSNRFSGVPDRFSGSGSGTDFTLKISRVEAEDVGVYYCFQSTHVPHTFGQGTKLEIKR
notes: as for B1
Molecule B3 registered a Kd of 3.51 nM, a koff of 0.0198 s⁻¹ and a kon of 5.64e+06 M⁻¹ s⁻¹.
